Data reported in article PMC9352680, “A comprehensive thermodynamic model for RNA binding by the Saccharomyces cerevisiae Pumilio protein PUF4”.

Biological target: T1, PUF4 RNA-binding domain (Saccharomyces cerevisiae, UniProt P25339 537-888)
T1 sequence: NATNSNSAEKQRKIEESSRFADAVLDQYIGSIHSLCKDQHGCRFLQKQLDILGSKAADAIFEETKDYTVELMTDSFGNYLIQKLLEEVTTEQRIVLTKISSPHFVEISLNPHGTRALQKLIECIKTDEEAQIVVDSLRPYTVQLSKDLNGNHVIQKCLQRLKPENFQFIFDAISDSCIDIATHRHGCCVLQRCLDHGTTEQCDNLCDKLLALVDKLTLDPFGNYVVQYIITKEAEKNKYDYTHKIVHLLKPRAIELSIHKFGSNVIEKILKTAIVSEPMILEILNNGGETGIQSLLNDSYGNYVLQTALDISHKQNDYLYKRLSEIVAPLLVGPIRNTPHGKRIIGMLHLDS
Test: Mg; RNA-MaP; 20 mM Na-HEPES pH 7.4, 30 mM KOAc, 0.75 mM MgCl2, 0.1% Tween-20, 5% glycerol, 0.1 mg/mL BSA, 2 mM DTT; 25 C; 0.0125-409.6 nM protein
Conditions: tags: N-His6-TEV cleaved; C-SNAP kept, Cy3B-labelled; label: tethered on chip by stalled RNA polymerase

UCUCUUUGUAUAUUUCCUUAUCUCUU (ssRNA) [Ie_S1_P4E.1_K4.1_C4.1_H4.1_A4.1_[+7TTCCT]_F4.1_T4.1] was tested, and the Kd was 3.91 nM.

Binder UCUCUUUGUAUAUCUCUCUAUCUCUU (ssRNA) [Ie_S1_P4E.1_K4.1_C4.1_H4.1_A4.1_[+7CTCTC]_F4.1_T4.1] has a Kd of 15.9 nM.

UCUCUUUGUAUAUUUUCCUAUCUCUU (ssRNA) [Ie_S1_P4E.1_K4.1_C4.1_H4.1_A4.1_F4.1_[+8TTCCT]_T4.1] gave a Kd of 5.96 nM.

With UCUCUUUGUAUAUUCUCAUCUCUU (ssRNA) [Ie_S1_P4E.1_K4.1_C4.1_H4.1_A4.1_F4.1_[+8CTC]_T4.1] the Kd was 10.8 nM.

For UCUCUUUGUAUAUUCUCUCAUCUCUU (ssRNA) [Ie_S1_P4E.1_K4.1_C4.1_H4.1_A4.1_F4.1_[+8CTCTC]_T4.1], the Kd was 5.64 nM.

UCUCUUUGUAUAUUAUCUCUCUU (ssRNA) [Ie_S1_P4E.1_K4.1_C4.1_H4.1_A4.1_F4.1_[+9TC]_T4.1] showed a Kd of 0.435 nM.

UCUCUUUGUAUAUUUCAUCUCUU (ssRNA) [Ie_S1_P4E.1_K4.1_C4.1_H4.1_A4.1_F4.1_[+8TC]_T4.1] showed a Kd of 5.5 nM.

UCUCUUUGUAUAUUCUCUAUCUCUU (ssRNA) [Ie_S1_P4E.1_K4.1_C4.1_H4.1_A4.1_F4.1_[+8CTCT]_T4.1] gave a Kd of 7.11 nM.

Binder UCUCUUUGUAUAUUUCUAUCUCUU (ssRNA) [Ie_S1_P4E.1_K4.1_C4.1_H4.1_A4.1_[+7TTC]_F4.1_T4.1] has a Kd of 5.38 nM.

UCUCUUUGUAUAUCCCUUAUCUCUU (ssRNA) [Ie_S1_P4E.1_K4.1_C4.1_H4.1_A4.1_[+7CCCT]_F4.1_T4.1] gave a Kd of 23.4 nM.

UCUCUUUGUAUAUUACCUCUCUU (ssRNA) [Ie_S1_P4E.1_K4.1_C4.1_H4.1_A4.1_F4.1_[+9CC]_T4.1] showed a Kd of 0.729 nM.

Binder UCUCUUUGUAUAUUACCCUCUCUU (ssRNA) [Ie_S1_P4E.1_K4.1_C4.1_H4.1_A4.1_F4.1_[+9CCC]_T4.1] has a Kd of 1.11 nM.

Binder UCUCUUUGUAUAUUAUUUCUCUU (ssRNA) [Ie_S1_P4E.1_K4.1_C4.1_H4.1_A4.1_F4.1_[+9TT]_T4.1] has a Kd of 0.545 nM.

Work on UCUCUUUGUAUAUUUCUCUAUCUCUU (ssRNA) [Ie_S1_P4E.1_K4.1_C4.1_H4.1_A4.1_F4.1_[+8TCTCT]_T4.1] yielded a Kd of 6.66 nM.

UCUCUUUGUAUAUCCUCUUAUCUCUU (ssRNA) [Ie_S1_P4E.1_K4.1_C4.1_H4.1_A4.1_[+7CCTCT]_F4.1_T4.1] gave a Kd of 31.7 nM.

UCUCUUUGUAUAUUUCCUAUCUCUU (ssRNA) [Ie_S1_P4E.1_K4.1_C4.1_H4.1_A4.1_[+7TTCC]_F4.1_T4.1] gave a Kd of 6.97 nM.

Work on UCUCUUUGUAUAUCCUCUAUCUCUU (ssRNA) [Ie_S1_P4E.1_K4.1_C4.1_H4.1_A4.1_[+7CCTC]_F4.1_T4.1] yielded a Kd of 25.3 nM.

UCUCUUUGUAUAUUACUUCUCUU (ssRNA) [Ie_S1_P4E.1_K4.1_C4.1_H4.1_A4.1_F4.1_[+9CT]_T4.1] was tested, and the Kd was 0.578 nM.

Work on UCUCUUUGUAUAUUCCUCAUCUCUU (ssRNA) [Ie_S1_P4E.1_K4.1_C4.1_H4.1_A4.1_F4.1_[+8CCTC]_T4.1] yielded a Kd of 6.83 nM.

B1: Ib_S2_P3E.1_K3.1_C3.1_H3.1_[T1C]_A3.1_F3.1_[T7A]_T3.1 (ssRNA)
RNA: UUUGAUUAAUAUGAUAUCGUUCUUUCUCGUAUAAAUUCUUUCUCGAUAUCAUAUUAAUCUUU
B1 was tested, and the Kd was > 2300 nM.

B2: Ib_S2_P3E.1_K3.1_C3.1_H3.1_[G2C]_A3.1_F3.1_[T7A]_T3.1 (ssRNA)
RNA: UUUGAUUAAUAUGAUAUCGUUCUUUCUUCUAUAAAUUCUUUCUCGAUAUCAUAUUAAUCUUU
With B2 the Kd was > 2300 nM.

With UCUCUUUGUAUAUUAUUCUCUU (ssRNA) [Ie_S1_P4E.1_K4.1_C4.1_H4.1_A4.1_F4.1_[+9T]_T4.1] the Kd was 0.531 nM.

UCUCUUUGUAUAUUUUCCAUCUCUU (ssRNA) [Ie_S1_P4E.1_K4.1_C4.1_H4.1_A4.1_F4.1_[+8TTCC]_T4.1] showed a Kd of 5.8 nM.

With UCUCUUUGUAUAUUCCUCUAUCUCUU (ssRNA) [Ie_S1_P4E.1_K4.1_C4.1_H4.1_A4.1_F4.1_[+8CCTCT]_T4.1] the Kd was 6.71 nM.

Work on UCUCUUUGUAUAUUUUCAUCUCUU (ssRNA) [Ie_S1_P4E.1_K4.1_C4.1_H4.1_A4.1_F4.1_[+8TTC]_T4.1] yielded a Kd of 6.76 nM.

Work on UCUCUUUGUAUAUUCCCUAUCUCUU (ssRNA) [Ie_S1_P4E.1_K4.1_C4.1_H4.1_A4.1_F4.1_[+8CCCT]_T4.1] yielded a Kd of 6.32 nM.
